B1: his-EmGFP-DBNL(1-374) (domain or fragment)
chain: not shown
B2: endogenous human drebrin-like protein (DBNL) (natural protein)
chain: not shown
B3: his-EmGFP-DBNL(1-256) (domain or fragment)
chain: not shown

Key:
[1] = biological target: the molecule itself; experiment: fluorescence correlation spectroscopy
[2] = biological target: the molecule itself; experiment: native gel or EMSA

Protein | binding result [1] | stoichiometry N [2]
B1 | binds | –
B2 | – | 2
B3 | binds | –

From paper doi:10.1101/869925 (bioRxiv, 2019)
